Measurements as given in paper PMC11852929 (Journal of Virology, 2025).

Target: T1, SARS-CoV-2 Omicron BA.5 S ectodomain trimer (BA.5-Spike-6P) (SARS-CoV-2 Omicron BA.5, S375F | D405N | R408S | K417N | Q498R | N501Y | Y505H)
T1 construct: also called BA.5 spike (S) trimer; BA.5 S trimer
Assay: cryo-EM structure
Conditions: both partners purified

B1: ORB10 fragment antigen-binding region (Fab) (Fab, V domains shown)
VH: QVQLQQSGAELVRPGSSVKISCKASGYAFSNYWMNWVKQRPGEGLEWIGQIYPGDGDTDYNGKFKGRATLTADKSSSTAYMQLSSLTSEDSAVYFCARGDDGYYVYFDYWGQGTTLTVSS
VL: EIVLTQSPALMAASPGEKVTITCSVSSSIGSNNLHWYQQKSETSPKPWIYGTSNLASGVPVRFSGSGSGTSYSLTISTMEAEDAATYYCQQWSGYPLTFGGGTKLEIK
notes: also called ORB10 Fab
B1 was tested, and the “stoichiometry N” value was 2 Fabs per S trimer.
